For test [1], the target named is DL06-HA, full length HA of A/duck/Laos/3295/2006(H5N1) (clade 2.3.4) (influenza A virus A/duck/Laos/3295/2006(H5N1)). In words: cell-based or functional assay.
For test [2], the target named is native H5 HA from multiple H5N1 clades. The test can be described thus: cell-based or functional assay.

We go through one molecule from US20170306001A1.

B1: Mouse MAb 9F4 (antibody, V domains shown)
V domain 1: QQSEAELARPGASVKMSCKASGFTLTTFTIHWVKQRPGQGLEWIGYINPRSGYTDYNQKFKDNTTLTVDKSSSTAYMQLSSLTSEDSAVFYCARSYYDYDVFDYWGQGTTLTV
V domain 2: DVQMTQSPSSLSASLGGKVTITCTARQDINKYIAWYQHKPGKGPRLLIHYTSTLQPGIPSRFSGSGSGTDYSFTISNLEPEDIATYYCLQYDNLVTFGGGTK
Molecule B1 yielded an IC50, entry of HA-pseudotyped lentiviral particles into MDCK cells (luciferase) in test [1] of 0.01 µg/mL. The molecule further gave an IC95, HApp neutralization in test [2] of 0.1 µg/mL.
